From patent publication US20240270857A1 (CHIA TAI TIANQING PHARMACEUTICAL GROUP, published 2024)

T1: human IL-36R overexpressed on 293T-hIL36R-NFκB cells (human, UniProt Q9HB29 20-575)
T1 sequence: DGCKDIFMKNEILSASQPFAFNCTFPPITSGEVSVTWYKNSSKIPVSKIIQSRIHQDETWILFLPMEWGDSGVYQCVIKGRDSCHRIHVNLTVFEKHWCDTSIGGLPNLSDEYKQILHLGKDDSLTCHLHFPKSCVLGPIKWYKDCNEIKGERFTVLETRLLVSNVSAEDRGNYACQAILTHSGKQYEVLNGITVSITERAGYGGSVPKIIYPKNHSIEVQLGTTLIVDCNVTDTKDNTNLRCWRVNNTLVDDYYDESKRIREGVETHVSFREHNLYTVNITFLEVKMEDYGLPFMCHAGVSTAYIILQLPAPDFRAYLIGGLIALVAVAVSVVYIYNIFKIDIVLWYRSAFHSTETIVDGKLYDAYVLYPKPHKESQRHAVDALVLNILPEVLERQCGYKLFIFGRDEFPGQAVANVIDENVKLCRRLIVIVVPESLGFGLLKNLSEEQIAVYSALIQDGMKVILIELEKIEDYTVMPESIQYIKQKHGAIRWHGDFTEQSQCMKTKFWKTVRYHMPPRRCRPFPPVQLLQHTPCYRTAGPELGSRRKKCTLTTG

T2: cynomolgus IL-36R overexpressed on 293T-CynoIL36R-NFκB cells (cynomolgus monkey)
T2 construct: Entry includes the signal peptide; also called monkey IL-36R
T2 chain: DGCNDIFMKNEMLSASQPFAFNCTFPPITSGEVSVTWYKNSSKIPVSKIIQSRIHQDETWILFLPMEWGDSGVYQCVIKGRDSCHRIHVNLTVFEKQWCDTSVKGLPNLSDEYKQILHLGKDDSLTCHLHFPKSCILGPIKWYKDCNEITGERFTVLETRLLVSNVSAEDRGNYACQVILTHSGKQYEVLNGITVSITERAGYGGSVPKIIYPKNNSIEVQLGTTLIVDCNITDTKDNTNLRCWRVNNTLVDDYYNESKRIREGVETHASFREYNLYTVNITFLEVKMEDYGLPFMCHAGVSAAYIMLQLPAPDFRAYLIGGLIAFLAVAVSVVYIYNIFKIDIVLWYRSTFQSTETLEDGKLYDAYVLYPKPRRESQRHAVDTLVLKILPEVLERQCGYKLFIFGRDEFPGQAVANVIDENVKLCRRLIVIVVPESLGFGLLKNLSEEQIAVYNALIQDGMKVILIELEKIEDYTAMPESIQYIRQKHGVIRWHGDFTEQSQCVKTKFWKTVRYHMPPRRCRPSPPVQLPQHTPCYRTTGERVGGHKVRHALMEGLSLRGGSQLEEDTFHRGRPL

T3: IL-36R naturally expressed on OVCAR8 cells and on normal human epidermal keratinocytes (NHK cells) (human, UniProt Q9HB29 20-575)
T3 sequence (looked up): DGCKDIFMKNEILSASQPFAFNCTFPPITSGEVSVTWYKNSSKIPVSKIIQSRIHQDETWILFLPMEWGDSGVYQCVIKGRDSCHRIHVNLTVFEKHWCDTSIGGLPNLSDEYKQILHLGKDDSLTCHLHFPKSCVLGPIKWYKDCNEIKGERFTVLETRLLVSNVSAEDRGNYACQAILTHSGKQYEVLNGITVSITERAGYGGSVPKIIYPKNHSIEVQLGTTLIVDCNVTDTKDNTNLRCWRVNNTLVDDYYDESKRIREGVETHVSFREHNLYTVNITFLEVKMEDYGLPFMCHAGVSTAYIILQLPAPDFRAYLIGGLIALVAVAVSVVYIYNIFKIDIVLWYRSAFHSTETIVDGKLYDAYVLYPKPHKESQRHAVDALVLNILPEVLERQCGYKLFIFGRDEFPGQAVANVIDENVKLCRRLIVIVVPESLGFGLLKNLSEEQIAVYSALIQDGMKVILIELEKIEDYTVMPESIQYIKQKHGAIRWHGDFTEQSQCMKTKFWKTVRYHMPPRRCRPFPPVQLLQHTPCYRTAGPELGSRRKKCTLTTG


Legend:
[1] = biological target: T1, human IL-36R overexpressed on …; assay: cell-based or functional assay
[2] = biological target: T2, cynomolgus IL-36R overexpressed on …; assay: FACS on 293T-CynoIL36R-NFκB cells, ratio of MFI to background MFI
Protocol: (§1) After the cells was washed with PBS, the cells were resuspended with 100 μL of PBS and then the fluorescence signal was detected using a flow cytometer (BD, Accuri C6). […] The ratio was the ratio of mean fluorescence intensity (MFI) of the experimental group/the background MFI, and the resulting data were analyzed using GraphPad Prism.

[3] = biological target: T3, IL-36R naturally expressed on OVCAR8 …; assay: cell-based or functional assay
[4] = biological target: T2, cynomolgus IL-36R overexpressed on …; assay: cell-based or functional assay
[5] = biological target: T1, human IL-36R overexpressed on …; assay: FACS on 293T-hIL36R-NFκB cells, ratio of MFI to background MFI
Protocol: as §1

[6] = biological target: T3, IL-36R naturally expressed on OVCAR8 …; assay: cell-based or functional assay; remark: listed apart in the source

Binder	IC50 (M); hIL36α; NFκB-luciferase [1] [M]	IC50 (M); hIL36αβγ; NFκB-luciferase [1] [M]	IC50 (M); hIL36β; NFκB-luciferase [1] [M]	IC50 (M); hIL36γ; NFκB-luciferase [1] [M]	Maximum inhibition rate %; hIL36α; NFκB-luciferase [1] [%]	Maximum inhibition rate %; hIL36αβγ; NFκB-luciferase [1] [%]	Maximum inhibition rate %; hIL36β; NFκB-luciferase [1] [%]	Maximum inhibition rate %; hIL36γ; NFκB-luciferase [1] [%]	EC50 [2] [nM]	IC50; IL-8 production of NHK cells stimulated with hIL36β, inhibition rate % [3] [nM]	IC50 (M); hIL36α; NFκB-luciferase [4] [M]	IC50 (M); hIL36β; NFκB-luciferase [4] [M]	IC50 (M); hIL36γ; NFκB-luciferase [4] [M]	Maximum inhibition rate %; hIL36α; NFκB-luciferase [4] [%]	Maximum inhibition rate %; hIL36β; NFκB-luciferase [4] [%]	Maximum inhibition rate %; hIL36γ; NFκB-luciferase [4] [%]	EC50 [5] [nM]	IC50; IL-8 production of NHK cells stimulated with hIL36γ, inhibition rate % [6] [nM]
hz84C4-1.1 (antibody, human IgG4 S228P, kappa, V domains shown, Humanized, human IgG4 / kappa) VH: QVQLVQSGAEVKKPGASVKVSCKASGYFFTSYWMNWVRQAPGQGLEWMGMIHPYDSETRYAQKFQGRVTMTVDKSTSTVYMELSSLRSEDTAVYYCASSTTAFAYWGQGTLVTVSS VL: DIQMTQSPSSLSASVGDRVTITCRASQDIGNALNWYQQKPGKAPKRLIYATSSLDPGVPSRFSGSRSGTDFTLTISSLQPEDFATYYCLQYASSPYTFGQGTKVEIKR	8.82e-10	1.82e-09	9.28e-10	5.76e-10	84.1	61.2	85.3	83.5	–	–	–	–	–	–	–	–	–	–
hz84C4-2.5 (antibody, human IgG4 S228P, kappa, V domains shown, Humanized, human IgG4 / kappa) VH: QVQLVQSGAEVKKPGASVKVSCKVSGYFFTSYWMNWVNQAPGQGLEWMGMIHPYDSETRLAQKFKGRVTMTVDKSTSTVYMELSSLRSEDTAVYYCASSTTAFAYWGQGTLVTVSS VL: DIQMTQSPSSLSASVGDRVTITCRASQDIGNALNWLQQKPGKAPKRLIYATSSLDPGVPSRFSGSRSGTDYTLTISSLQPEDFATYYCLQYASSPYTFGQGTKVEIKR	9.38e-10	~1.55e-09	7.66e-10	3.5e-10	85.7	54.4	83.1	84.7	–	–	–	–	–	–	–	–	–	–
BI655130 (antibody, human IgG1, kappa, L234A L235A, also called Spesolimab) heavy: not shown light: QIVLTQSPGTLSLSPGERATMTCTASSSVSSSYFHWYQQKPGQAPRLWIYRTSRLASGVPDRFSGSGSGTDFTLTISRLEPEDAATYYCHQFHRSPLTFGAGTKLEIKRTVAAPSVFIFPPSDEQLKSGTASVVCLLNNFYPREAKVQWKVDNALQSGNSQESVTEQDSKDSTYSLSSTLTLSKADYEKHKVYACEVTHQGLSSPVTKSFNRGEC	1.75e-09	3.27e-09	2.21e-09	1.1e-09	83.6	63.3	85.2	81	9.64	0.248	2.77e-08	5.63e-08	1.19e-08	49.1	60.8	83.1	1.33	0.0387
chimeric 84C4 antibody (antibody, human IgG4 S228P, kappa, Mouse variable regions on human IgG4 / kappa; also called xi84C4) heavy: not shown light: DILMTQSPSSLSASLGERVSLTCRASQDIGNALNWLQQAPDGTIKRLIYATSSLDPGVPKRFSGSRSGSDYSLTISSLASEDFVYYYCLQYASSPYTFGGGTKLEIKRTVAAPSVFIFPPSDEQLKSGTASVVCLLNNFYPREAKVQWKVDNALQSGNSQESVTEQDSKDSTYSLSSTLTLSKADYEKHKVYACEVTHQGLSSPVTKSFNRGEC	–	–	–	–	–	–	–	–	36.6	0.848	–	–	–	–	–	–	0.886	0.125
hz72C1-1.1 (antibody, human IgG4 S228P, kappa, Humanized, human IgG4 / kappa; also called humanized 72C1 antibody 1.1) heavy: not shown light: DIQMTQSPSSLSASVGDRVTITCRASSNVRYMYWYQQKPGKAPKLWIYLTSNLASGVPSRFSGSGSGTSYTLTISSLQPEDFATYYCQQFTTSPYTFGQGTKLEIKRTVAAPSVFIFPPSDEQLKSGTASVVCLLNNFYPREAKVQWKVDNALQSGNSQESVTEQDSKDSTYSLSSTLTLSKADYEKHKVYACEVTHQGLSSPVTKSFNRGEC	–	–	–	–	–	–	–	–	–	–	3.15e-09	3.09e-09	1.66e-09	101	100	104	–	–
hz72C1-1.3 (antibody, human IgG4 S228P, kappa, Humanized, human IgG4 / kappa) heavy: not shown light: DIQMTQSPSSLSASVGDRVTITCRASSNVRYMYWYQQKPGKAPKLWIYLTSNLASGVPSRFSGSGSGTSYTLTISSLQPEDFATYYCQQFTTSPYTFGQGTKLEIKRTVAAPSVFIFPPSDEQLKSGTASVVCLLNNFYPREAKVQWKVDNALQSGNSQESVTEQDSKDSTYSLSSTLTLSKADYEKHKVYACEVTHQGLSSPVTKSFNRGEC	–	–	–	–	–	–	–	–	–	–	3.13e-09	2.7e-09	1.65e-09	101	101	103	–	–
chimeric 72C1 antibody (antibody, human IgG4 S228P, kappa, Mouse variable regions on human IgG4 / kappa; also called xi72C1) heavy: not shown light: EILLTQSPAIMSATLGEKVTMSCRASSNVRYMYWYQLKSGASPKLWIYLTSNLASGVPARFSGSGSGTSYSLTISSVEAEDAATYFCQQFTTSPYTFGGGTKLEIKRTVAAPSVFIFPPSDEQLKSGTASVVCLLNNFYPREAKVQWKVDNALQSGNSQESVTEQDSKDSTYSLSSTLTLSKADYEKHKVYACEVTHQGLSSPVTKSFNRGEC	–	–	–	–	–	–	–	–	8.96	0.474	–	–	–	–	–	–	2.52	0.0486
